# T1: B7-H3 on B7H3-expressing A375 and A375.S2 cells (UniProt Q5ZPR3 29-534, limits assumed)
# T1 construct: whole, on cells
# T1 sequence (looked up): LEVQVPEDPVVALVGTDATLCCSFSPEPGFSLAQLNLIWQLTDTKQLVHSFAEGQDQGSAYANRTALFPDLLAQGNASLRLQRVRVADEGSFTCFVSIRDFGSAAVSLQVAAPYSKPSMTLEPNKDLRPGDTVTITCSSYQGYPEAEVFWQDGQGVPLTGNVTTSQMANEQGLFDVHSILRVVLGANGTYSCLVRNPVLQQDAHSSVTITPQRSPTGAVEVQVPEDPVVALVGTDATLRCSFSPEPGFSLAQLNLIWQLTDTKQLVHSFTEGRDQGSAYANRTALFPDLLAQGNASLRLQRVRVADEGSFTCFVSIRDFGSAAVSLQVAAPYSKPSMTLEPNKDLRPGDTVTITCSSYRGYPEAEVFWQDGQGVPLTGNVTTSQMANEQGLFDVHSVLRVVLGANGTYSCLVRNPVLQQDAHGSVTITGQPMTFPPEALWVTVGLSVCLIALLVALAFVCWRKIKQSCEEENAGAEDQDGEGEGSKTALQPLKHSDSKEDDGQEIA
# How the values were obtained:
# [1] = target: T1, B7-H3 on B7H3-expressing A375 and …; assay: binding to B7H3-expressing A375 cell line (FIG. 18)
# Protocol: The binding of these prodrugs against B7H3-expressing A375 cell line were tested.
# [2] = target: T1, B7-H3 on B7H3-expressing A375 and …; assay: FACS on B7H3-expressing A375 and A375.S2 cells
# [3] = target: T1, B7-H3 on B7H3-expressing A375 and …; assay: cell-based binding on A375 and A375.S2 cells (FIG. 13)
# [4] = target: T1, B7-H3 on B7H3-expressing A375 and …; assay: cell-based binding assay (FIG. 15A)
binding result [3],other results,Binder
–,binding result [1]: binds,"Format 33 (IgG1 CH3Δ6 hole / IgG4 CH3Δ6 knob mask + GGGS on MGA017 variable regions, hIgG1) (antibody, Antibody prodrug against B7-H3) heavy: not shown light: GQPREPQVYTLPPCQEEMTKNQVSLWCLVKGFYPSDIAVEWESNGQPENNYKTTPPVLDSDGSFFLYSRLTVDKSRWQEGNVFSCSVMHEALHNHYTQKSLGGGSDIQMTQSPSSLSASVGDRVTITCRASESIYSYLAWYQQKPGKAPKLLVYNTKTLPEGVPSRFSGSGSGTDFTLTISSLQPEDFATYYCQHHYGTPPWTFGQGTRLEIKRTVAAPSVFIFPPSDEQLKSGTASVVCLLNNFYPREAKVQWKVDNALQSGNSQESVTEQDSKDSTYSLSSTLTLSKADYEKHKVYACEVTHQGLSSPVTKSFNRGEC"
–,binding result [2]: binds,"MGA017 (parental naked anti-B7-H3 antibody) (antibody, V domains shown, Anti-B7-H3 antibody from MacroGenics; also called un-masked MGA017; parental naked antibody of Format 12) VH: EVQLVESGGGLVKPGGSLRLSCAASGFTFSSYGMSWVRQAPGKGLEWVATINSGGSNTYYPDSLKGRFTISRDNAKNSLYLQMNSLRAEDTAVYYCARHDGGAMDYWGQGTTVTVSS VL: DIQMTQSPSSLSASVGDRVTITCRASESIYSYLAWYQQKPGKAPKLLVYNTKTLPEGVPSRFSGSGSGTDFTLTISSLQPEDFATYYCQHHYGTPPWTFGQGTRLEIK"
binds,–,"MGA017-mIgG1 (parental antibody of Formats 28-31) (antibody, V domains shown, mIgG1; also called parental antibody MGA017; naked antibody MGA017) VH: EVQLVESGGGLVKPGGSLRLSCAASGFTFSSYGMSWVRQAPGKGLEWVATINSGGSNTYYPDSLKGRFTISRDNAKNSLYLQMNSLRAEDTAVYYCARHDGGAMDYWGQGTTVTVSS VL: DIQMTQSPSSLSASVGDRVTITCRASESIYSYLAWYQQKPGKAPKLLVYNTKTLPEGVPSRFSGSGSGTDFTLTISSLQPEDFATYYCQHHYGTPPWTFGQGTRLEIK"
binds,–,"Format 29 (KIH CH3Δ6 mask + cleavable linker PLGLAG on MGA017 variable regions, mIgG1) (antibody, Antibody prodrug against B7-H3, uncleaved) heavy: GQPREPQVCTLPPSRDELTKNQVSLSCAVKGFYPSDIAVEWESNGQPENNYKTTPPVLDSDGSFFLVSKLTVDKSRWQQGNVFSCSVMHEALHNHYTQKSLPLGLAGEVQLVESGGGLVKPGGSLRLSCAASGFTFSSYGMSWVRQAPGKGLEWVATINSGGSNTYYPDSLKGRFTISRDNAKNSLYLQMNSLRAEDTAVYYCARHDGGAMDYWGQGTTVTVSSAKTTPPSVYPLAPGSAAQTNSMVTLGCLVKGYFPEPVTVTWNSGSLSSGVHTFPAVLQSDLYTLSSSVTVPSSTWPSETVTCNVAHPASSTKVDKKIVPRDCGCKPCICTVPEVSSVFIFPPKPKDVLTITLTPKVTCVVVDISKDDPEVQFSWFVDDVEVHTAQTQPREEQFNSTFRSVSELPIMHQDWLNGKEFKCRVNSAAFPAPIEKTISKTKGRPKAPQVYTIPPPKEQMAKDKVSLTCMITDFFPEDITVEWQWNGQPAENYKNTQPIMDTDGSYFVYSKLNVQKSNWEAGNTFTCSVLHEGLHNHHTEKSLSHSPGK light: GQPREPQVYTLPPCRDELTKNQVSLWCLVKGFYPSDIAVEWESNGQPENNYKTTPPVLDSDGSFFLYSKLTVDKSRWQQGNVFSCSVMHEALHNHYTQKSLPLGLAGDIQMTQSPSSLSASVGDRVTITCRASESIYSYLAWYQQKPGKAPKLLVYNTKTLPEGVPSRFSGSGSGTDFTLTISSLQPEDFATYYCQHHYGTPPWTFGQGTRLEIKRADAAPTVSIFPPSSEQLTSGGASVVCFLNNFYPKDINVKWKIDGSERQNGVLNSWTDQDSKDSTYSMSSTLTLTKDEYERHNSYTCEATHKTSTSPIVKSFNRNEC"
–,binding result [1]: binds,"Format 34 (CLκ on VH / CH1 plus EPKSC on VL as mask + GGGS on MGA017 variable regions, hIgG1) (antibody, Antibody prodrug against B7-H3) heavy: not shown light: ASTKGPSVFPLAPSSKSTSGGTAALGCLVKDYFPEPVTVSWNSGALTSGVHTFPAVLQSSGLYSLSSVVTVPSSSLGTQTYICNVNHKPSNTKVDKKVEPKSCGGGSDIQMTQSPSSLSASVGDRVTITCRASESIYSYLAWYQQKPGKAPKLLVYNTKTLPEGVPSRFSGSGSGTDFTLTISSLQPEDFATYYCQHHYGTPPWTFGQGTRLEIKRTVAAPSVFIFPPSDEQLKSGTASVVCLLNNFYPREAKVQWKVDNALQSGNSQESVTEQDSKDSTYSLSSTLTLSKADYEKHKVYACEVTHQGLSSPVTKSFNRGEC"
–,binding result [4]: binds,"Format 31 (KIH CH3Δ6 mask + cleavable linker IPVSLRSGPLGLAG on MGA017 variable regions, mIgG1) (antibody, Antibody prodrug against B7-H3, uncleaved) heavy: GQPREPQVCTLPPSRDELTKNQVSLSCAVKGFYPSDIAVEWESNGQPENNYKTTPPVLDSDGSFFLVSKLTVDKSRWQQGNVFSCSVMHEALHNHYTQKSLIPVSLRSGPLGLAGEVQLVESGGGLVKPGGSLRLSCAASGFTFSSYGMSWVRQAPGKGLEWVATINSGGSNTYYPDSLKGRFTISRDNAKNSLYLQMNSLRAEDTAVYYCARHDGGAMDYWGQGTTVTVSSAKTTPPSVYPLAPGSAAQTNSMVTLGCLVKGYFPEPVTVTWNSGSLSSGVHTFPAVLQSDLYTLSSSVTVPSSTWPSETVTCNVAHPASSTKVDKKIVPRDCGCKPCICTVPEVSSVFIFPPKPKDVLTITLTPKVTCVVVDISKDDPEVQFSWFVDDVEVHTAQTQPREEQFNSTFRSVSELPIMHQDWLNGKEFKCRVNSAAFPAPIEKTISKTKGRPKAPQVYTIPPPKEQMAKDKVSLTCMITDFFPEDITVEWQWNGQPAENYKNTQPIMDTDGSYFVYSKLNVQKSNWEAGNTFTCSVLHEGLHNHHTEKSLSHSPGK light: GQPREPQVYTLPPCRDELTKNQVSLWCLVKGFYPSDIAVEWESNGQPENNYKTTPPVLDSDGSFFLYSKLTVDKSRWQQGNVFSCSVMHEALHNHYTQKSLIPVSLRSGPLGLAGDIQMTQSPSSLSASVGDRVTITCRASESIYSYLAWYQQKPGKAPKLLVYNTKTLPEGVPSRFSGSGSGTDFTLTISSLQPEDFATYYCQHHYGTPPWTFGQGTRLEIKRADAAPTVSIFPPSSEQLTSGGASVVCFLNNFYPKDINVKWKIDGSERQNGVLNSWTDQDSKDSTYSMSSTLTLTKDEYERHNSYTCEATHKTSTSPIVKSFNRNEC"
binds,–,"Format 28 (KIH CH3Δ6 mask + cleavable linker IPVSLRSG on MGA017 variable regions, mIgG1) (antibody, Antibody prodrug against B7-H3, uncleaved) heavy: GQPREPQVCTLPPSRDELTKNQVSLSCAVKGFYPSDIAVEWESNGQPENNYKTTPPVLDSDGSFFLVSKLTVDKSRWQQGNVFSCSVMHEALHNHYTQKSLIPVSLRSGEVQLVESGGGLVKPGGSLRLSCAASGFTFSSYGMSWVRQAPGKGLEWVATINSGGSNTYYPDSLKGRFTISRDNAKNSLYLQMNSLRAEDTAVYYCARHDGGAMDYWGQGTTVTVSSAKTTPPSVYPLAPGSAAQTNSMVTLGCLVKGYFPEPVTVTWNSGSLSSGVHTFPAVLQSDLYTLSSSVTVPSSTWPSETVTCNVAHPASSTKVDKKIVPRDCGCKPCICTVPEVSSVFIFPPKPKDVLTITLTPKVTCVVVDISKDDPEVQFSWFVDDVEVHTAQTQPREEQFNSTFRSVSELPIMHQDWLNGKEFKCRVNSAAFPAPIEKTISKTKGRPKAPQVYTIPPPKEQMAKDKVSLTCMITDFFPEDITVEWQWNGQPAENYKNTQPIMDTDGSYFVYSKLNVQKSNWEAGNTFTCSVLHEGLHNHHTEKSLSHSPGK light: GQPREPQVYTLPPCRDELTKNQVSLWCLVKGFYPSDIAVEWESNGQPENNYKTTPPVLDSDGSFFLYSKLTVDKSRWQQGNVFSCSVMHEALHNHYTQKSLIPVSLRSGDIQMTQSPSSLSASVGDRVTITCRASESIYSYLAWYQQKPGKAPKLLVYNTKTLPEGVPSRFSGSGSGTDFTLTISSLQPEDFATYYCQHHYGTPPWTFGQGTRLEIKRADAAPTVSIFPPSSEQLTSGGASVVCFLNNFYPKDINVKWKIDGSERQNGVLNSWTDQDSKDSTYSMSSTLTLTKDEYERHNSYTCEATHKTSTSPIVKSFNRNEC"
binds,–,"Format 30 (KIH CH3Δ6 mask + cleavable linker PLGLAGGGGS on MGA017 variable regions, mIgG1) (antibody, Antibody prodrug against B7-H3, uncleaved) heavy: GQPREPQVCTLPPSRDELTKNQVSLSCAVKGFYPSDIAVEWESNGQPENNYKTTPPVLDSDGSFFLVSKLTVDKSRWQQGNVFSCSVMHEALHNHYTQKSLPLGLAGGGGSEVQLVESGGGLVKPGGSLRLSCAASGFTFSSYGMSWVRQAPGKGLEWVATINSGGSNTYYPDSLKGRFTISRDNAKNSLYLQMNSLRAEDTAVYYCARHDGGAMDYWGQGTTVTVSSAKTTPPSVYPLAPGSAAQTNSMVTLGCLVKGYFPEPVTVTWNSGSLSSGVHTFPAVLQSDLYTLSSSVTVPSSTWPSETVTCNVAHPASSTKVDKKIVPRDCGCKPCICTVPEVSSVFIFPPKPKDVLTITLTPKVTCVVVDISKDDPEVQFSWFVDDVEVHTAQTQPREEQFNSTFRSVSELPIMHQDWLNGKEFKCRVNSAAFPAPIEKTISKTKGRPKAPQVYTIPPPKEQMAKDKVSLTCMITDFFPEDITVEWQWNGQPAENYKNTQPIMDTDGSYFVYSKLNVQKSNWEAGNTFTCSVLHEGLHNHHTEKSLSHSPGK light: GQPREPQVYTLPPCRDELTKNQVSLWCLVKGFYPSDIAVEWESNGQPENNYKTTPPVLDSDGSFFLYSKLTVDKSRWQQGNVFSCSVMHEALHNHYTQKSLPLGLAGGGGSDIQMTQSPSSLSASVGDRVTITCRASESIYSYLAWYQQKPGKAPKLLVYNTKTLPEGVPSRFSGSGSGTDFTLTISSLQPEDFATYYCQHHYGTPPWTFGQGTRLEIKRADAAPTVSIFPPSSEQLTSGGASVVCFLNNFYPKDINVKWKIDGSERQNGVLNSWTDQDSKDSTYSMSSTLTLTKDEYERHNSYTCEATHKTSTSPIVKSFNRNEC"

# Reference: patent publication US20240182541A1 (CONCEPT TO MEDICINE BIOTECH, published 2024)
